Assay results from the supplement of paper PMC10126150.
± gives the standard deviation of the averaged measurements.

Tested on: ATP
Experiment: switch fluorescence ratio, 500 uM ATP over buffer (Cy3 cluster intensity, sum of 5 cycles each) (fold (ratio)); higher = stronger signal-on switching upon ATP binding; sequences stand for … in TCGTCGGCAGCGTCAGATGTGTATAAGAGACAGTTTTTTTTTTTTTTTTTTTTTTTTT…TC
Conditions: aptamer strand: ATP DNA aptamer (quencher-CACCTGGGGGAGTATTGCGGAGGAAGG + anchor), 100 nM annealed; ATP concentration: 500 uM
Outline: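 The quencher-labelled ATP aptamer, at 100 nM, was annealed to Cy3-labelled switching-strand clusters on a modified Illumina MiSeq flow-cell. The clusters were imaged in selection buffer, then after 15 min with 500 uM ATP at 22 °C, and this buffer/ATP cycle ran five times with NaOH stripping and re-annealing between runs. Per-cluster fluorescence ratios, summed target-cycle over summed buffer-cycle Cy3 intensity, were averaged per switch-domain sequence. Clusters outside 100-1000 RFU were excluded.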
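Note: ATP exposure 15 min at 22 °C before imaging.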

Row | Sequence | switch fluorescence ratio
1 | TAACAGGGGT | 1.31 ± 0.43
2 | AGTATTCTAT | 1.004 ± 0.0034
3 | TGTATAATGT | 0.985 ± 0.029
4 | TTTGCAGCTT | 1.49 ± 0.87
5 | CGTTTTTGAT | 0.981 ± 0.04
6 | TTGGGTGGAG | 0.991 ± 0.023
7 | GTTGATGGAG | 0.992 ± 0.0091
8 | CTAGATTGGG | 1.015 ± 0.0043
9 | GCTTGAAGTT | 0.991 ± 0.068
10 | GCGATAGTGG | 0.974 ± 0.011
11 | AGGGGAGTTT | 1 ± 0.041
12 | AGGTGCAGGC | 0.863 ± 0.082
13 | AGGTAAGGGC | 1.01 ± 0.015
14 | ATTTGGCGCG | 0.964 ± 0.024
15 | AATATAGATG | 0.9885 ± 0.007
16 | TATTTATCTG | 1.02 ± 0.019
17 | GTTGAGGGTT | 0.989 ± 0.049
18 | AACGGACTTA | 1.25 ± 0.044
19 | TTGGACAGTT | 0.99 ± 0.04
20 | CGGGGGTACG | 1.02 ± 0.074
21 | ATTCGTTGTT | 0.997 ± 0.01
22 | TTATTACCGA | 1.056 ± 0.0098
23 | AGGACGATGG | 1.1 ± 0.16

Row | Sequence | switch fluorescence ratio
24 | CGTCGGAGGG | 0.977 ± 0.013
25 | TAGGATGGGG | 1 ± 0.032
26 | TTGTGAGGGC | 1.02 ± 0.041
27 | TTTTCGGTTA | 1.01 ± 0.015
28 | GGGTTCGGTG | 1.01 ± 0.039
29 | ATCATAAGTT | 1.01 ± 0.016
30 | TGTTCTGGGG | 1.01 ± 0.019
31 | GAATGTTTGG | 0.991 ± 0.011
32 | CGTCGCCGGT | 1 ± 0.0078
33 | ATGCGCTTTT | 1.03 ± 0.089
34 | TCGTTGAGTG | 1.02 ± 0.056
35 | TTATCCGGTT | 1.01 ± 0.012
36 | TATACTTAAT | 1.059 ± 0.0053
37 | AAATTTCTTT | 0.996 ± 0.016
38 | AGATGGCATT | 1 ± 0.048
39 | TTACGGGCGG | 1.03 ± 0.078
40 | CGAGGGTTGG | 1.02 ± 0.018
41 | GAGGGGTTG | 0.988 ± 0.034
42 | AGAAGTGAGC | 0.978 ± 0.038
43 | CGGGGATTTT | 1.01 ± 0.051
44 | AGGAGAGGGA | 0.995 ± 0.038
45 | ATATTAGTTA | 0.997 ± 0.05
46 | ATTCATTAGG | 1.02 ± 0.034

Row | Sequence | switch fluorescence ratio
47 | AGGCCCTAGG | 1.046 ± 0.0036
48 | GGGCTTAGTG | 0.993 ± 0.0066
49 | ATAGGTATTC | 0.976 ± 0.026
50 | GATGTCGTAC | 0.99 ± 0.012
51 | AAGGTTTCGG | 0.985 ± 0.038
52 | ACGAGTAGCT | 1.01 ± 0.014
53 | GTTGGGAGCG | 1 ± 0.033
54 | ATGGGGAAAG | 0.9876 ± 0.0034
55 | CGAGGGGGTG | 1.02 ± 0.055
56 | CCGACCTGTA | 1.94 ± 0.22
57 | TGGTATCAGC | 0.999 ± 0.048
58 | TTGGTTTTGA | 0.988 ± 0.042
59 | TGGCGGTATA | 0.993 ± 0.012
60 | CTGAACTCGA | 1.09 ± 0.046
61 | AACGGGGTGT | 1.062 ± 0.0093
62 | GCCGGACATT | 0.998 ± 0.02
63 | CGTTTATCTG | 0.972 ± 0.025
64 | TTCTTTTGTA | 1.06 ± 0.076
65 | TTACTGTTAC | 1.32 ± 0.083
66 | GTAATGTGGT | 0.967 ± 0.024
67 | GGGATCGTTT | 0.982 ± 0.046
68 | TTTGGAGGAG | 0.997 ± 0.048
69 | AGTAGATTAA | 0.986 ± 0.011

Row | Sequence | switch fluorescence ratio
70 | GAAAAAAGAT | 1.02 ± 0.014
71 | AAAGTTGATT | 1.01 ± 0.03
72 | TTAGTTTTTC | 1.01 ± 0.032
73 | CGATATATGA | 1.02 ± 0.019
74 | TGGCTCCATT | 1.01 ± 0.034
75 | GATGAGCTGT | 1.03 ± 0.046
76 | ATATTGAAGG | 0.981 ± 0.012
77 | TAACGTGAGT | 0.988 ± 0.016
78 | ACGGTGCATG | 1.018 ± 0.006
79 | TTATGTTTGT | 1.01 ± 0.033
80 | ATTTGGGCAT | 0.994 ± 0.029
81 | TTTTCTGCGT | 1.02 ± 0.043
82 | GGGTGTGGAG | 1.01 ± 0.012
83 | GGTGCAAGTT | 1.02 ± 0.042
84 | CGGGTCTGTT | 0.979 ± 0.047
85 | CGCTGGGGAT | 1.04 ± 0.027
86 | TACGGGTTAG | 1.031 ± 0.0034
87 | ATGGTAATGG | 1.02 ± 0.016
88 | TATAGGGGGT | 1.01 ± 0.036
89 | GATGGTGTAA | 0.967 ± 0.028
90 | TTTCAAAGAT | 1.22 ± 0.41
91 | GCGTCCGCGG | 1.26 ± 0.041
92 | GTTAACAGGA | 0.985 ± 0.019

Row | Sequence | switch fluorescence ratio
93 | TGAATGTTTG | 1.01 ± 0.036
94 | GAAGCTGTAT | 1.1 ± 0.035
95 | CCAAGCGCTG | 1.06 ± 0.03
96 | CGGGGGTCTT | 1 ± 0.021
97 | TTGTAATAGT | 1.026 ± 0.00026
98 | GGGTATGGGC | 0.955 ± 0.014
99 | AAGAATAAAT | 1 ± 0.029
100 | ATGTGTAGAG | 0.995 ± 0.027
101 | GATAGGGATG | 1.001 ± 0.0062
102 | CAAGGCCTGT | 0.971 ± 0.017
103 | TTGTGGTTGC | 1.02 ± 0.013
104 | GCTTTCAGGG | 1.01 ± 0.025
105 | CCATGGAGTA | 1 ± 0.019
106 | ATTGCGTGTA | 1.023 ± 0.0085
107 | AGGTTGTTAA | 1.0085 ± 0.0005
108 | TTTCAGGTTG | 0.982 ± 0.041
109 | GGGGGGGGG | 1 ± 0.04
110 | GTATAAGCCT | 1.05 ± 0.041
111 | GATTGGAGCA | 1.02 ± 0.034
112 | TTTGTGCCTC | 0.9528 ± 0.0093
113 | ATAACAGGGC | 0.952 ± 0.037
114 | TAACACGTCG | 0.9947 ± 0.0081
115 | GCACGGGACT | 1.184 ± 0.011

Row | Sequence | switch fluorescence ratio
116 | ATTAATCTTG | 1.03 ± 0.046
117 | AACCATACTA | 1.19 ± 0.028
118 | TCGGCTATTT | 1.03 ± 0.019
119 | TATGCATATT | 1.04 ± 0.032
120 | GTATTGTTTT | 1.14 ± 0.16
121 | GTTAGAGATA | 0.992 ± 0.015
122 | AAGCGGAGAT | 1.02 ± 0.0065
123 | GGGCATGAAG | 1.016 ± 0.0066
124 | CTTCAGTCTT | 1 ± 0.011
125 | TCAGCAAAGT | 1.08 ± 0.019
126 | TTAATTTTGG | 1.02 ± 0.012
127 | CGCTTGGTTT | 0.9911 ± 0.0063
128 | GAAGGGAGGA | 1.03 ± 0.077
129 | TTGAGACTCG | 0.995 ± 0.019
130 | TGCTCCTTCT | 1.09 ± 0.011
131 | TAGGAGTGGG | 1 ± 0.01
132 | ATTCTTCTTA | 1.028 ± 0.0033
133 | AGTTAATGTT | 1.01 ± 0.0026
134 | AGCTGATAGG | 0.991 ± 0.032
135 | TTGATATTTG | 1.01 ± 0.039
136 | AAAGGTAGGG | 0.993 ± 0.032
137 | GGGCGAGCCT | 1.028 ± 0.008
138 | TGGATGTATG | 0.99 ± 0.04

Row | Sequence | switch fluorescence ratio
139 | AATTGAGTGG | 1.009 ± 0.0077
140 | GGAAGGGGTG | 1.01 ± 0.035
141 | AGGAGGAGTA | 0.968 ± 0.019
142 | AAGTGGCCGG | 0.961 ± 0.074
143 | ATCTTCGGGC | 0.9869 ± 0.0065
144 | TCAGGGTCTT | 1.01 ± 0.011
145 | GAAAGATGAC | 1.03 ± 0.088
146 | ACGGGGCTTT | 1.05 ± 0.024
147 | TCATGGGGAG | 1.03 ± 0.033
148 | GGCTTGGGCG | 0.983 ± 0.061
149 | TGTTTCTATT | 0.9925 ± 0.0055
150 | TAGTGTGTTG | 0.996 ± 0.011
151 | TAGCAGTCAA | 1.02 ± 0.02
152 | CTAGATATGT | 0.99 ± 0.011
153 | GTCGTTTGGG | 0.991 ± 0.027
154 | TGGTATTTTG | 0.977 ± 0.024
155 | AAGGTATGTC | 1.01 ± 0.063
156 | CGATTCTGCT | 0.996 ± 0.036
157 | AAGGGGCGCT | 1.01 ± 0.039
